This passage reports protein production results from a protein production outcome set (Wang et al. 2014).

This series in a line: label from the status in PepcDB records.
For the sequence “MKKGTDLLKKGFAKMVKHGVVMDVTNVEQAQIAEEAGAVAVMALERVPADIRAAGGVARMSDPALIEEIMDAVSIPVMAKCRIGHTTEALVLEAIGVDMIDESEVLTQADPFFHIYKKKFNVPFVCGARNLGEAVRRIWEGAAMIRTKGEAGTGNIVEAVRHMRLMNEAIAQLQRMTDEEVYGVAKFYANRYAELAKTVREGMGLPATVLENEPIYEGFTLAEIIDGLYEVLLEVKKLGRLPVVNFAAGGVATPADAALMMQLGSDGVFVGSGIFKSENPLERARAIVEATYNYDKPDIVAEVSKNLGEAMKGIDITQISEAEKMQYRGD”, the protein production result is “not failed”.
Next, “MKKKQVLAVSSALMIGTTTALTGLPTPVMAQENTEVVQEAVVEENKTEQVPVEQKTENAEVQENITDKEQEETAENAETLKEESTKQETPATPEKEVVTEDKTVEASKNTEVKAGSIAIDETHFPDKVFREQIIAEFDKDGDSVLSVDEISKAQFLNLHGMKTISSLEGIQYLTNLQSLDVSTTSVSDLSPVKNSSLKRLDCRSSKVGSVDLTRYPNLEAFLCDNTSINSLDVSKNEKLNTLFADSTSISNLDVTNNPNLEQLSCSNTGLMELDVTHNPQLVTLDIGDTKVKTLDISKNPNLKQLSCYMTNIAELDVTKNTKLTRLFCHDTTIKKLDLSNNLELEMLRCGEIFEQGIRGLDISKNTKIKKLICDDLYWLNVGENKVLENNHAFVGNGYIDIKGNKIDLKKDVEQGIDISKVKVTANGTLDKDTGIITVDDVKKPVTYEYDCGTYKDGNVVLKVELSLNSQGEDNTAPTISANDVTLNVGDTFDPLANVTATDKEDGTITLTKDNIVANDVDTSKAGTYHVTYKVTDKNGASVKKTITVTVKQNTGDLNSAPIISANDVTLNVGDTFDPLANVTATDKEDGTIILTKDNIIANDVDTSKAGTYHVTFRVVDKNGAITEKTITVTVKEKATNKPVSPQQPQKPSKPTTPTKPSGQKNPVKTGDMTNVGLFTSMFAGSTGVLAVLFGKKRKRNKNN”: “failed”; “FSIGVTGVMSAGKSTMLNAILQREILGTSVIPETANLTILRFDQNERAIVRFWNRHEWEMIAQSAQFDEGIDYFMKESLTVFGTVLHEYITQEGRTYEIPLEELSTYTSAKHPSKLCNLVKSVEIFTPLEFLDDGVEIVDTPGLDDPLTQREEITKEYLARCDVMLHLMNAAQPATQKDVDFIIDALIYQNVSRLLVILTRADSLTPQE”: “failed”.
Next, “MAWYEGAFFYQIFPDRFFRAGPPGRPAPAGPFEPWEAPPTLRGFKGGTLWGVAEKLPYLLDLGVEAIYLNPVFASTANHRYHTVDYFQVDPILGGNEALRHLLEVAHAHGVRVILDGVFNHTGRGFFAFQHLMENGEQSPYRDWYHVKGFPLKAYTAHPNYEAWWGNPELPKLKVETPAVREYLLAVAEHWIRFGVDGWRLDVPNEIPDPTFWREFRQRVKGANPEAYIVGEIWEEADFWLQGDMFDAVMNYPLARAVLGFVGGEALDRDLAAQTGLGRIEPLQALAFSHRLEDLFGRYRPEVVRAQMNLLTSHDTPRLLSLMRGSVERARLALALLFLLPGNPTVYYGEEVGMAGGKDPENRGGMVWEEARWQKDLRETVKRLARLRKEHPALRTAPYLRIYAQDGHLAFARGPYLAVVNASPHPFRQDFPLHGVFPRGGRAVDLLSGEVCTPQGGRLCGPVLPPFSLALWREA”: “not failed”; “MCLDACLTPDLADRDPVGRACDRAYVIDRPVFRSAMGNCRPSHFRGNGTHAAMNGESCAQRGKRTHKMQESEFFQLSGTTAVLLLVAFYGATFLMSLMIGQKKENVDGYMVSNSSVGFGLSAASMIATWIWAASFYASATSGFKYGLSGPIHYGFWGALMILFIYPFGKRFRQLAPKAHTLAEVIHARHGASSQMIMAVSNIVGSCISLMVNFTAAGALVSVLSPLSFIQGVLIAGLGVLSYTLWSGFRASVMTDFAQLVAMILAAVIIIPLIFFNAGGPDMLQANMWRLSSEQADFFSTTAILEQGAPYFVAVLAYAIGNQTIAQRLFAVREDLIKPTFLTATIGYGAVVIGLGMLGLLALFVGLEPVNGNMNNIIPQMASTYLPPVGIALFFILVVGSLSSTADSDLAALSAIVMTDIYAKNLAGGRPDPRRMLWWGRATMIVATMVGVIFASLRLDILVMLVFVGALWGAIVFPVIASFYWDRVSNSAFFWSVISAVVLFTIVRFELVPIEGAVAVFYEICAAIGGGVVIGLMSFAFFGRVTALTLGTLATLFLLPCFVGTLREYIVLLGSLTAYGVSTVVCVALSLRNQERFDFSLLAERVTSFHYEKARMMGAKPAAPAAQPQPARG”: “failed”; “MSGREFLQKLLDGERVEWKALGEIIQLEKGRQLNKDLLSSSGRYPAYNGGMSYSGFTDSYNYSENKTIISQGGASAGFVNFVTTKFYANAHCYVVLPDTEVVDNRYIYHFLKLNEERLTSCQHGAGIPALRASEITSLKIPIPCPDNPKKSLAIQAEIVRILDAFTELTAELTAELTARKKQYAYYRDRLLTFTTPPYGHPSKGGELFSLFGHPSEGGELFTPYGHSVEERELNSPSLKGWQAQPDGVVPVEWKTLGEVGHFIRGSGIQKSDFKASGVGCIHYGQIHTHYGTWTTETKSFIDPEFANRLKKAKPGDLVIATTSEDDDAVAKAVAWIGTEDVAVSTDAYIFRHTANPKYMSYFFQTDMFQEQKKPYITGTKVRRISGDNLAKILIPIPPLAEQERIVAILDQFDALTNSLTEGLPREIELRQKQYAYYRDLLFSFPKASFGGVPEGRDQFPSFGGVPEGRGGLNALEHHHHHH”: “failed”.
As for “MYTENTGKHHRNGLPVWLLPLLVVISFWGVSQNIMVVDASSSVTVLPGNGGTLPLVNQLVIKQNDTALQGITNNAGDRGSLTPKNGAQRVLIHKVKDSDTITSTYGTVGTFHGQEVTAKVTISHIKVHDDSHKAPSGMKQTDGAFQIGPGFSSDTTMSNVAQFNVSYEFYYADTHAAVNIQNAFITLSSLDGPVAGTSTGFEYTAYLGAGKIYTVENSIVKQIANPLGGGQLVMAGQTARDASWPYTSSTAATFGVSGTKLEFIYGTTRVNSGNSWLQPVYNVSTITLGTPAIATPTLSATQSATDKQNRTLTYDLQQKVNVLDQDLMTKYKDWSENITIPANAKYTKGEVVNDAGQALPSTAYQVSYDEKTHQVKWHLTDAGIKSLPFKGETYHFKAQVQFSDDVDDQTKVTATGQTAIDKQTKTSNTVTNTIDNQATITVHHYMTDSTDKVAPDETVKVGYGKAYDVTKQVKTITGYKRNATLDEHTRGTASKTTKEAVMYYDPLPYNIHVNYLLTDGQKLDELDVTGLYGDTYTTEATDFEDLYTVDTDRLPTNAQGTVTEKPTTVNYYYQPTTGQWVDVGNQSSVLVRQDTKHNVRSVSQIYANDSGFTVKYNQDAAQVAIAASDTNGTQDNSLVFDYNSKYTFELSKNETVTFKVDDQGQVTATRVLGAEQTVTTFDKSGQLKTVTTVTNANGTKSQQTNTVDGLKSMVTGEQYDLGLLNGLKVTAQKEINPSQAATTESKTTTDTSQSGSNQSTSTTATDQTETNESTAGSSTNATNASSSVDASSANSQGDTEATSQSGTSASADSKTDSSVASSTSQTTDGKTDGETTNTGDTTTGTTTDSGLGFKSPFTEDQNTSSALGSAQTSSSLNSDTSAAVQALIAEPNSTPVVLGEDASFEEGVPVNDPVFSNDEGVSPNNNPSSAATPLAQATNTRARLTQNGKLLYEGTLKADQGEQNLYVSPDTTVEVDGGDDGDGFYLDTYDGDKGMAYTLGSGYAWAAENNDVTAAPASSATTSSESAASESNTNSSDSSRTASSAVDHSTSSASTSDASQSSHSTSSGESSHPESSSGSSTTSDSADADKQAAARSSQTQSNSVNGSSQAVSSSTVTSQSSVPTKANTKQASSTPTTKANRATVAAATSSTAPRQSRATTASASVPSVTSASAVAASRDKQQSAFKKQHPILNQILPKTNSAVATWLVWLGVGLLLLTVAITMVIKKRGRD”, the entry is “failed”; as for “MHTSVQHAKTCLAVTSVSPIYVFGKTTFVSELIEQAGGKNCVETIQSAYPTVDVEYILRANPDVFIFNSTDQQKLFFETYPLLKQCKGYITNQLFVIDDSIMSRPGIRLPILKDSLVSILSKLEHHHHHH”, “failed”.
For “MTDSTTLQQPAGANNLYGGLLSAQGLDLDQFETIHTQVQAWKTTAGTDVKFVEARELPIVDVILRFKAGTTQDTLYPGLAALTLSMLDEGSQAYTAAQQAEHLERLGAVMEKQVRLEHATLRLRSLSPPSLLDPALAVFTDLVAHPVFHPMALTRIKRQLLQNHASRERLPILRARSEVFRHLFNGHPYGNPLGSTAQGIEAITPEDLRAFHQRAYSASNLEMVVVGDLSPGQAQAISQQISQALPQGWSATELPAAPSAPSATIAVEQAGASSAILLALPMNVPANDPEFLALALASAVLGEGLESRLMVELRQRRGLTYGVHTHVLPLSAGGLFTVEWEVAPQHVQGTQALVETLLQAFIDEGPTQLELQLARKQLEGQLLRGIAQNRQLATLLTEVTHQRQPADHLDTYSARIAELTPADVRAVMQRRLALSHKVLVSVGPGVQQQPLPAPDQ”, the protein production entry is reported as “failed”.
Next, “MKRIHVRYKQIRRFFLLLGLVIIAAYVAFVLYRYWDHWLLLSNPQKAIENFEQQFRSENLFNFLVLTVLTSLTAAIPFLSSSVLSVFNGVVFGPWIGVLMNTIGNILGHFFLIQMMSRVDLTERDSKFNHHLERLSQIKNPYLALTLGYMIPFIPSFLVDYMVLDTKIPWHRWLPCLTLGVIPTSILYAFGGHAIIAGNMKQLILIVLLALILLAIYKRFEKKKG”: “failed”; “MTEYKQEQEMEIEALEAILMDEFKEIHSSESGLNTSNRCFQITVTPQDDELEELAIPPVQLALVFSHTENYPDEAPLLDVKSIRGIHVSDLTILKEKLEQEASENLGMAMIYTLVSSAKDWLSEHYGQDDAAEFAEVEAAKEDEVIVPHGEPVTLETFLAWRERYEAELALERAKLMPESALTAPKEKKLTGRQWFESGRGRGTVVIADEEDEEEDEEDIDFEDEDFEDDEEDMLEHYLAEKSDSSAPPTRT”: “failed”.
As for “MRDPVSRLPNREQFQSDLYDLADENPGERRVLVLVDAVDMTVAHELTLAMGLAPFETIVRFLAQQLLAYLGRHVRVYHVSVKRFGFLLPAAPGIERFLESLVRRLRRQPPGLELPMIPGVCAGTVEFSTDRDAVPDVLRKAMFALELATLNRSTWAPYDVVRLEHHHHHH”, the entry is “failed”.
As for “MVSLTKRCIAEFIGTFILVFFGAGSAAVTLMIASGGTSPNPFNIGIGLLGGLGDWVAIGLAFGFAIAASIYALGNISGCHINPAVTIGLWSVKKFPGREVVPYIIAQLLGAAFGSFIFLQCAGIGAATVGGLGATAPFPGISYWQAMLAEVVGTFLLMITIMGIAVDERAPKGFAGIIIGLTVAGIITTLGNISGSSLNPARTFGPYLNDMIFAGTDLWNYYSIYVIGPIVGAVLAALTYQYLTSE”, the entry is “not failed”.
